pKd: −log10 of the molar value.
How the values were obtained:
[1] = molecular target: Med15 ABD2 (yeast) (UniProt P19659); experiment: ITC; Gal4 AD in the syringe (1.11 mM), Med15 domain in the cell (ABD1 0.102 mM; ABD2 0.11 mM); 22 °C; 20 mM KH2PO4 pH 7.5, 200 mM KCl; single binding site model
[2] = molecular target: Med15 ABD1 (yeast) (UniProt P19659); experiment: as above
[3] = molecular target: Gal4 AD (residues 828–881) labeled with Oregon Green 488 (yeast) (UniProt P04386); experiment: fluorescence polarisation; Oregon Green 488-labelled Gal4 AD; 15 concentrations of Med15 spanning 0–250 μM; 22 °C; 20 mM KH2PO4 pH 7.5, 200 mM KCl; one-site total binding model
[4] = molecular target: Gal4 AD (Gal4 residues 828–881) (yeast) (UniProt P04386); experiment: NMR titration; (1H,15N)- and (1H,13C)-HSQC titrations; unlabeled Gal4 AD or ABD added to ~200 μM 13C,15N-labelled AD or ABD; 25 °C; 20 mM sodium phosphate, 150 mM NaCl, 0.1 mM EDTA, 5 mM DTT, pH 6.5
[5] = molecular target: Gcn4 tAD (Saccharomyces cerevisiae) (UniProt P03069); experiment: FP; conditions: cited from earlier work
[6] = molecular target: Gcn4 cAD (Saccharomyces cerevisiae) (UniProt P03069); experiment: FP; conditions: cited from earlier work
[7] = molecular target: Gcn4 nAD (Saccharomyces cerevisiae) (UniProt P03069); experiment: FP; conditions: cited from earlier work

Substance	pKd [3]	pKd [5]	pKd [6]	pKd [7]	other results
Gal4 AD (Gal4 residues 828–881) (from UniProt P04386 828-881) (domain or fragment)	–	–	–	–	pKd [1]: 4.46; pKd [2]: 5.04
Med15 158–651 Δ239–272, Δ373–483 (ABD123) (from UniProt P19659 158-651) (domain or fragment)	5.69	–	–	–	–
Med15 ABD1 (from UniProt P19659)	–	5.58	5.60	5.48	–
Med15 ABD2 (from UniProt P19659)	–	4.71	3.83	4.66	–
Med15 ABD3 (from UniProt P19659)	–	5.36	4.86	5.59	–
Med15 ABD123 (from UniProt P19659)	–	–	–	6.44	–

The next lines start with results.

pKd [3]	Substance	pKd [5]	pKd [6]	pKd [7]	other results
4.79	Med15 484–651 (ABD3) (from UniProt P19659 484-651) (domain or fragment)	–	–	–	–
5.03	Med15 ABD1 (from UniProt P19659 158-238) (domain or fragment)	–	–	–	exchange rate [4]: > 250 s⁻¹; lifetime of the bound state [4]: < 4 ms
4.01	Med15 ABD2 (from UniProt P19659 277-368) (domain or fragment)	–	–	–	–

From publication PMC8044209
